In general, EC50 (read off the curve) refers to the concentration giving half of the maximal effect.

Assay [1] concerns the target T1, human CD137, full length, on cells (human, UniProt Q07011 24-255).
T1 construct: also called DO11.10.hCD137; HEK.FRT.luc.hCD137
The assay can be described thus: flow cytometry on CD137high DO11.10 cells (ABC 1,206,283), anti-human IgG-PE detection, geometric mean PE. The protocol: (§1) A range of DO11.10 cells expressing different levels of CD137 were produced as described in Example 3.5. To determine the relative expression of CD137 in each cell line, the antibody binding capacity (ABC) was determined according to manufacturer's protocol (Quantum™ Simply Cellular® #816 Bangs Labs).
(§2) All antibodies tested were diluted in FACS buffer in 120 μl. DO11.10 cells were then centrifuged, supernatant removed and cells resuspended in 100 μl of each antibody dilution and incubated at 4° C. for 45 min. Cells were washed twice by centrifugation with 150 μl FACS buffer, resuspended in 100 μl containing goat anti-human IgG (γ-chain specific) F (ab′) 2 fragment-R-Phycoerythrin antibody (Sigma, P8047) diluted 1:1000 in FACS buffer and incubated at 4° C. for 45 min. The cells were washed once with 150 μl FACS buffer and then with 150 μl DPBS, resuspended in 150 μl DPBS containing DAPI (Biotium, 40043) at 1:10.000 and read on the BDCantoll or iQue (Intellicyt). Data was analysed using FlowJo v10 to determine the signal geometric mean for PE for live cells in each well.
(In general: Flow cytometry measures light scatter and fluorescence of single cells or particles in a stream.)

Assay [2] has as its target T1, human CD137, full length, on cells. The assay can be described thus: flow cytometry on CD137int/low DO11.10 cells (ABC 143,065), anti-human IgG-PE detection, geometric mean PE. The protocol: as §1, §2
Assay [3] has the same target. Briefly: flow cytometry on CD137int DO11.10 cells (ABC 404,597), anti-human IgG-PE detection, geometric mean PE. The method, then: as §1, §2
Assay [4] has the same target. Briefly: flow cytometry on CD137low DO11.10 cells (ABC 14,208), anti-human IgG-PE detection, geometric mean PE. The method, then: as §1, §2
For assay [5] the target is unchanged. Briefly: cell-based or functional assay.
The target is the same in assay [6]. Briefly: cell-based or functional assay. The source holds these as a separate data set.
The target is the same in assay [7]. Briefly: cell-based or functional assay. The source holds these as a separate data set.

T1 sequence (Q07011 24-255): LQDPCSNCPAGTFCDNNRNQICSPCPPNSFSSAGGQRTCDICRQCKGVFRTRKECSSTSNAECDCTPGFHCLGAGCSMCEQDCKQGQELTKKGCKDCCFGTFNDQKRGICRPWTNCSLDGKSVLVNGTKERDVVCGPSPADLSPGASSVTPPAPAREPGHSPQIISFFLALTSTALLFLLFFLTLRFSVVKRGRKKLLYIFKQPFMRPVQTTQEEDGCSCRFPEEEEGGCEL

B1: FS22-172-003-AA/HelD1.3 (bispecific antibody, human IgG1, kappa, L234A L235A)
heavy: QVQLQESGPGLVRPSQTLSLTCTVSGSTFSGYGVNWVRQPPGRGLEWIGMIWGDGNTDYNSALKSRVTMLVDTSKNQFSLRLSSVTAADTAVYYCARERDYRLDYWGQGSLVTVSSASTKGPSVFPLAPSSKSTSGGTAALGCLVKDYFPEPVTVSWNSGALTSGVHTFPAVLQSSGLYSLSSVVTVPSSSLGTQTYICNVNHKPSNTKVDKKVEPKSCDKTHTCPPCPAPEAAGGPSVFLFPPKPKDTLMISRTPEVTCVVVDVSHEDPEVKFNWYVDGVEVHNAKTKPREEQYNSTYRVVSVLTVLHQDWLNGKEYKCKVSNKALPAPIEKTISKAKGQPREPQVYTLPPSRDELPYIIPPYNQVSLTCLVKGFYPSDIAVEWESNGQPENNYKTTPPVLDSDGSFFLYSKLTVGADRWLEGNVFSCSVMHEALHNHYTQKSLSLSPG
light: DIQMTQSPASLSASVGETVTITCRASGNIHNYLAWYQQKQGKSPQLLVYNAKTLADGVPSRFSGSGSGTQYSLKINSLQPEDFGSYYCQHFWSTPRTFGGGTKLEIKRTVAAPSVFIFPPSDEQLKSGTASVVCLLNNFYPREAKVQWKVDNALQSGNSQESVTEQDSKDSTYSLSSTLTLSKADYEKHKVYACEVTHQGLSSPVTKSFNRGEC
notes: Mock mAb^2, IgG1 with LALA
Regarding B1, the results for the “EC50 (read off the curve)” value in assay [1], in assay [2] and in assay [3] were approximately 0.5 nM, approximately 0.8 nM and approximately 0.5 nM, respectively.

B2: G1-AA/HelD1.3 (antibody, human IgG1, kappa, L234A L235A, V domains shown)
VH: QVQLQESGPGLVRPSQTLSLTCTVSGSTFSGYGVNWVRQPPGRGLEWIGMIWGDGNTDYNSALKSRVTMLVDTSKNQFSLRLSSVTAADTAVYYCARERDYRLDYWGQGSLVTVSS
VL: DIQMTQSPASLSASVGETVTITCRASGNIHNYLAWYQQKQGKSPQLLVYNAKTLADGVPSRFSGSGSGTQYSLKINSLQPEDFGSYYCQHFWSTPRTFGGGTKLEIKR
notes: Anti-hen egg lysozyme human IgG1 with the LALA mutation; also called G1-AA/HeID1.3; G1AA/HeID1.3 mAb (with LALA)
B2: the binding result in assay [4] is given as “no binding”.

B3: G1-AA/20H4.9 (antibody, V domains shown)
VH: QVQLQQWGAGLLKPSETLSLTCAVYGGSFSGYYWSWIRQSPEKGLEWIGEINHGGYVTYNPSLESRVTISVDTSKNQFSLKLSSVTAADTAVYYCARDYGPGNYDWYFDLWGRGTLVTVSS
VL: EIVLTQSPATLSLSPGERATLSCRASQSVSSYLAWYQQKPGQAPRLLIYDASNRATGIPARFSGSGSGTDFTLTISSLEPEDFAVYYCQQRSNWPPALTFGGGTKVEIKR
For the molecule B3, in assay [5], the “IL-2 release, human CD137 DO11.10 T cell activation assay, Protein L: +XL EC50” value is 0.82 nM. The “IL-2 release, DO11.10.hCD137 T cell activation assay: EC50” value in assay [6] turned out to be 0.26 nM. The “hIL-2 release, primary human CD8+ T cells, 20H4.9 (row without XL): EC50” value in assay [7] was determined as 0.89 nM. The “hIL-2 release, primary human CD8+ T cells, 20H4.9 + XL (anti-hCH2): EC50” value in assay [7] came out at 0.5 nM. Further, the “EC50 (read off the curve)” value in assay [2], in assay [3] and in assay [4] was approximately 0.1 nM throughout.

(Values after patent publication US20250084176A1 (F STAR BETA, published 2025).)
